Test results from the supplement of paper PMC9170038.

Test system: MS2 coat protein
Test: apparent KD of MS2 coat protein; designed switch direction (-1 OFF switch, 1 ON switch): 1; higher = weaker reporter binding
Method in brief: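 Stalled E. coli RNA polymerase transcribed designed RNA switches on Illumina chips, which were then titrated with SNAP-549-labelled MS2 coat protein, doubling from 0.7 or 1.5 nM to 3 µM. Steps lasted from 0.8–1.5 h at the lowest concentration to 10–20 min at the highest. The apparent KD is each design's median over clusters of curve-fitted normalised fluorescence.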

[1] = input ligand: microRNA oligo, concentration not stated
[2] = Eterna round: R95, input ligand: FMN 200 uM
[3] = Eterna round: R95, input ligand: microRNA oligo, concentration not stated
[4] = Eterna round: R95, input ligand: none

Sequence | apparent KD of MS2 coat protein (input ligand: FMN 200 uM) | apparent KD of MS2 coat protein [1] | apparent KD of MS2 coat protein (input ligand: none) | apparent KD of MS2 coat protein [2] | apparent KD of MS2 coat protein [3] | apparent KD of MS2 coat protein [4]
GGAAAGAGGUCAGGAUAUGAAUGUUUGGGACAUGAGGAUCACCCAUGUAAUAGAAGAAAUCUACAUUAGAAGGGACAAGGAAGG [AK SSNG2-V2-6] (Eterna round: R96, puzzle: Same State NG 2) | 63.5 nM | 54.5 nM | 79.3 nM | – | – | –
GCGAUCUACCGGAAGGUAGAUCGGCUUGUACAUGAGGAUCACCCAUGUCUGUACAAGCUUUUUGCUCGUCUUAUGGG [salish99-hsa-208a-66] (Eterna round: R96, puzzle: Sensor for hsa-mir-208a) | 1150 nM | 27.9 nM | 713 nM | – | – | –
GCCAACUAAUGAGGAUAUGGCACCUUAUUGGUGCCAGAAGGCAUGUCAAUUGACAUGAGGAUCACCCAUGUAUUAUAGUUGGCA [Fiskers NG1ss - 33] (Eterna round: R96, puzzle: Same State NG 1) | 90.4 nM | 178 nM | 405 nM | – | – | –
AACAGACAUGAGGAUCACCCAUGUAGAAUUAUGGGAGGAUAUACAAAGACGAGAGUCAGAGUAGAAGGCCUAGGAC [salish99-ss1-163] (Eterna round: R96, puzzle: Same State 1) | 24.3 nM | 42.2 nM | 51.7 nM | – | – | –
GUAGCAUACCGAGGAUAUUCAUAUUAUAAACAUGAGGAUCACCCAUGUGGUCGAUUACGACCUUGGGAGAAGGCGGAAUGCUAC [Xeonanis - 20 Mod36] (Eterna round: R96, puzzle: Same State NG 2) | 46.4 nM | 462 nM | 725 nM | – | – | –
GUGGCCCAGGCACAGGAUAUGUUUCUCGUAACAUGAGGAUCACCCAUGUGCCUAUGAGAUUGUUUGCAGAAGGGUGCACGCCACG [JL Atiinbe mod 03] (puzzle: Same State 2) | – | – | – | 21 nM | 348 nM | 541 nM
UGUUGUAUUACAGGAUAUCUAUUGUUUUUAUUUAGAGAAGGGUAUUCACAUGAGGAUCACCCAUGUAUAUACGAGGAAGUUGUG [JMF's solution 12] (Eterna round: R96, puzzle: Same State NG 1) | – | 40.6 nM | – | – | – | –
AGCCGAGACUGAGGAUAUUUGAAUCUACAUGAGGAUCACCCAUGUAGCAACACGUGGUAGUGAUCGAAGAAGGCAGCUCGGCGC [MOD of Omei's SS(NG)2 Cv2] (Eterna round: R96, puzzle: Same State NG 2) | 22.6 nM | 45.7 nM | 57 nM | – | – | –
CUCAAACAUGAGGAUCACCCAUGUGUUGUCGUGGGAGGAUAUCCCGGUUCGGUGGCGUCGGGAGAAGGCCUAUGUC [× ×•×ª×• ×ž×“×™× ×” × ×—×ª-17] (puzzle: Same State 1) | – | – | – | – | 54.8 nM | –
GCUCGUAUGAUGACCGACAUGAGGAUCACCCAUGUGUGUUGGUAGGAUAUCUAUAUUAAGGAUAUAGAGAAGGGCCGAACGAGC [SameState NG3 #16] (Eterna round: R96, puzzle: Same State NG 3) | 22.4 nM | 23.6 nM | 30.6 nM | – | – | –
UGUUGUAUUACAGGAUAUCUAUUGUUAUUAUUUAGAGAAGGGUAUUCACAUGAGGAUCACCCAUGUAUAUACGAGGAAGUUGUG [JMF's solution 74] (Eterna round: R96, puzzle: Same State NG 1) | – | 33 nM | – | – | – | –
CCGGCAAGUAUAGGAUAUCCCGCUACAGAAGCGGGAGAAGGGUGCCAAACAUGAGGAUCACCCAUGUACACCGGAAAUAUAUAA [Soorve] (Eterna round: R96, puzzle: Same State NG 1) | 36.4 nM | 31.2 nM | 34.6 nM | – | – | –
GGAGGACAUGAGGAUCACCCAUGUGGAUGGGCGCUAGGAUAUGCGAGAGGAUGGAGAGAAGCAGAAGGAGUGGGUU [JR_SS1_Sub042] (puzzle: Same State 1) | – | – | – | – | 79.6 nM | –
GGUCCAGCCUGAGCUGGACUACAGCAUGUACAUGAGGAUCACCCAUGUCAUGUACAUGCUUUUUGUUUGUCUUAAAA [Sensorship 10 - Jieux - Sensor for hsa-mir-208a] (puzzle: Sensor for hsa-mir-208a) | – | – | – | 20.2 nM | 38.8 nM | 24.6 nM
UGUUAGUAGACAGGAUAUUGAAUGUUAAGUAUUAACAUGAGGAUCACCCAUGUAUUUGAUUGGUACAAGAAGGGUCAAGUUUGU [JR_SSNG2_Sub013] (Eterna round: R96, puzzle: Same State NG 2) | 487 nM | 191 nM | 320 nM | – | – | –
AUCCUACAUGAGGAUCACCCAUGUGAGGCCUCAAUAGGAUAUGCGUGUGCCUUGGCGCAUGCAGAAGGAUUGAAGC [JL Aveso mod 2] (puzzle: Same State 1) | – | – | – | – | 159 nM | –

Sequence | apparent KD of MS2 coat protein (input ligand: FMN 200 uM) | apparent KD of MS2 coat protein [1] | apparent KD of MS2 coat protein (input ligand: none) | apparent KD of MS2 coat protein [2] | apparent KD of MS2 coat protein [3] | apparent KD of MS2 coat protein [4]
AGAAAGAAACAUGAGGAUCACCCAUGUACAAGCUUUUUGCUCGUCUUAUUACAUGGGUUCAUGGGUGAUCGGGAUGU [Tim MacKenzie] (puzzle: Sensor for hsa-mir-208a version 2) | – | – | – | 11.1 nM | 13.1 nM | 19.9 nM
AUCCUACAUGAGGAUCACCCAUGUGACGCCUCAAUAGGAUAUGCGUGUGCCUUGGCGCAUGCAGAAGGAUUGGAGC [JL Aveso mod 4] (puzzle: Same State 1) | – | – | – | 84.6 nM | 318 nM | 279 nM
GUAAGUUUGAUGCUCGUCUCUCCGUACAAACAUGAGGAUCACCCAUGUGGUCGGGAAGUAGCCCGGCCAGUAUGGCC [Rerire] (puzzle: Sensor for hsa-mir-208a) | – | – | – | 24.8 nM | 21.4 nM | 26.8 nM
UGGUACAUGGGAGGAUAUGGAGUGAAGACAUGAGGAUCACCCAUGUUAUAAAUGCCGAGAGGCAACUAGAAGGCCCAUGUACCU [JL SSNG1 3.94] (Eterna round: R96, puzzle: Same State NG 2) | – | 54.3 nM | – | – | – | –
GCGAGCGUACUUGCUACAUGAGGAUCACCCAUGUUUCAUGGACAGGAUAUGGUACCGUUUCGGUACCAGAAGGGUUCACAUGUG [JL SSNG3 3.81] (Eterna round: R96, puzzle: Same State NG 3) | 88.7 nM | 68 nM | 92.1 nM | – | – | –
ACAAGCUUUUUAGGAGAGAAAGGUGGGAAACAUGAGGAUCACCCAUGUAUGGUAGUGAAUAGUGGAACUCGUCUUAU [JR_SHM208A_Sub081] (puzzle: Sensor for hsa-mir-208a) | – | – | – | 400 nM | 104 nM | 462 nM
GGAAAGAGGUAAGGAUAUGCAUGGCUGGGACAUGAGGAUCACCCAUGUUAUAGAAGAAAUCUAGGGUAGAAGGUACAAGGAAGG [AK SSNG2-V2-9.1] (Eterna round: R96, puzzle: Same State NG 2) | 464 nM | 199 nM | 455 nM | – | – | –
UGGCUCAGACUAGGAUAUGAUCAUGGCGCUUCGGCGCAUACAUGAGGAUCACCCAUGUAAAGUGAUCAGAAGGAGUCUGAGCCA [SSNG2/7-C2] (Eterna round: R96, puzzle: Same State NG 2) | 14.5 nM | 11.9 nM | 15.8 nM | – | – | –
AUAAGUUUGAUGCUCGUCUCUCCGUACUAACAUGAGGAUCACCCAUGUGGUCGGGAAGUAGCCCGGCCAGUAUGGCC [Lequteti] (puzzle: Sensor for hsa-mir-208a) | – | – | – | 19.5 nM | 19.4 nM | 19.3 nM
AGUCCUGAAAAGAAAAUAAAGAGAGAUGUACAUGAGGAUCACCCAUGUCAUGUACAAGUUCUAUGCUCGUCAUAUAA [Sensorship 23 - Jieux - Sensor for hsa-mir-208a] (puzzle: Sensor for hsa-mir-208a) | – | – | – | 913 nM | 113 nM | 1430 nM
GACCGCGAGGAAGGAUAUCGAGCCUUAUUGGCUCGAGAAGGUCCAUAAAGGACAUGAGGAUCACCCAUGUGGUGAGAAGCGGUC [Mat - Same State NG 1 - JL mod - D76] (Eterna round: R96, puzzle: Same State NG 1) | 187 nM | 1430 nM | 1160 nM | – | – | –
UUAAUGAAGUAAGGAUAUACAUGAGGAUCACUCGUAGAAGGUACUAUACAUGAGGAUCACCCAUGUUCCGGUCAGAAGACUGGA [Mat - Same State NG 1 - JL mod - D3] (Eterna round: R96, puzzle: Same State NG 1) | 598 nM | 411 nM | 316 nM | – | – | –
GGUCCGGCCUGAGCUGGACCGAGGCAUGUACAUGAGGAUCACCCAUGUUCAUGUGCAGGCUUUUUGCUCGUCUUGUG [JL-shm-2.06 JL mod] (puzzle: Sensor for hsa-mir-208a) | – | – | – | 49.6 nM | 11 nM | 50.6 nM
UUACUCAUGUAAGGAUAUGCAGCCGAAACGGCUGCAGAAGGUACUAAAAUACAUGAGGAUCACCCAUGUCUAAUUAAUUAAGAC [Mat - Same State NG 1 - JL mod - D84] (Eterna round: R96, puzzle: Same State NG 1) | 139 nM | 36.3 nM | 66.5 nM | – | – | –
AGGCUCAGACGAGGAUAUAUGCGAUCACAUGAGGAUCACCCAUGUCUCGAGCUUCGGCUCGAGGCAUAGAAGGCGUCUGAGCCA [SSNG2/4-A1] (Eterna round: R96, puzzle: Same State NG 2) | 16.4 nM | 31.2 nM | 38.4 nM | – | – | –
GGAGCCGACACUGAGGAUAUUCAUAUUAAAACAUGAGGAUCACCCAUGUAGGCCAGAAGGCCUUGGGAGAAGGCAGGCCGGCUCG [Inxebi] (Eterna round: R96, puzzle: Same State 2) | 21.9 nM | 166 nM | 287 nM | – | – | –
